The text below walks through data of patent publication US7005285.

B1: human p21-activated kinase 5 (PAK5), full length, expressed in 293 cells from pcDNA3.1 myc-his (protein)
chain: MFGKKKKKIEISGPSNFEHRVHTGFDPQEQKFTGLPQQWHSLLADTANRPKPMVDPSCITPIQLAPMKTIVRGNKPCKETSINGLLEDFDNISVTRSNSLRKESPPTPDQGASSHGPGHAEENGFITFSQYSSESDTTADYTTEKYREKSLYGDDLDPYYRGSHAAKQNGHVMKMKHGEAYYSEVKPLKSDFARFSADYHSHLDSLSKPSEYSDLKWEYQRASSSSPLDYSFQFTPSRTAGTSGCSKESLAYSESEWGPSLDDYDRRPKSSYLNQTSPQPTMRQRSRSGSGLQEPMMPFGASAFKTHPQGHSYNSYTYPRLSEPTMCIPKVDYDRAQMVLSPPLSGSDTYPRGPAKLPQSQSKSGYSSSSHQYPSGYHKATLYHHPSLQSSSQYISTASYLSSLSLSSSTYPPPSWGSSSDQQPSRVSHEQFRAALQLVVSPGDPREYLANFIKIGEGSTGIVCIGTEKHTGKQVAVKKMDLRKQQRRELLFNEVVIMRDYHHDNVVDMYSSYLVGDELWVVMEFLEGGALTDIVTHTRMNEEQIATVCLSVLRALSYLHNQGVIHRDIKSDSILLTSDGRIKLSDFGFCAQVSKEVPKRKSLVGTPYWMAPELISRLPYGTEVDIWSLGIMVIEMIDGEPPYFNEPPLQAMRRIRDSLPPRVKDLHKVSSVLRGFLDLMLVREPSQRATAQELLGHPFLKLAGPPSCIVPLMRQYRHH
For B1, the “kinase assay: incorporation of 32P from [gamma-32P]ATP into substrate, SDS gel and phosphoimager” value was “PAK5 is able to phosphorylate generic kinase substrates such as myelin basic protein and histone H1” with myelin basic protein; “PAK5 is able to phosphorylate generic kinase substrates such as myelin basic protein and histone H1” in the series with histone H1.
